Experimental data published in patent publication US20230002480A1.

Assays:
Test in all cases: cell-based or functional assay
[1] = target: HIV-1 Env of pseudovirus Q259.d2.17 (HIV-1)
[2] = target: HIV-1 Env of pseudovirus BJOX028000.10.3 (HIV-1)
[3] = target: HIV-1 Env of pseudovirus CAP210.2.00.E8 (HIV-1)
[4] = target: HIV-1 Env of pseudovirus CAAN5342.A2 (HIV-1)
[5] = target: HIV-1 Env of pseudovirus MS208.A1 (HIV-1)
[6] = target: HIV-1 Env of pseudovirus AC10.0.29 (HIV-1)
[7] = target: HIV-1 Env of pseudovirus 3016.v5.c45 (HIV-1)
[8] = target: HIV-1 Env of pseudovirus RHPA4259.7 (HIV-1)
[9] = target: HIV-1 Env of pseudovirus Ce1172_H1 (HIV-1)
[10] = target: HIV-1 Env of pseudovirus A07412M1.vrc12 (HIV-1)
[11] = target: HIV-1 Env of pseudovirus Ce703010054_2A2 (HIV-1)
[12] = target: HIV-1 Env of pseudovirus REJO4541.67 (HIV-1)
[13] = target: HIV-1 Env of pseudovirus CNE17 (HIV-1)
[14] = target: HIV-1 Env of pseudovirus TRO.11 (HIV-1)
[15] = target: HIV-1 Env of pseudovirus 89-F1_2_25 (HIV-1)
[16] = target: HIV-1 Env of pseudovirus ZM249M.PL1 (HIV-1)
[17] = target: HIV-1 Env of pseudovirus Ce0393_C3 (HIV-1)
[18] = target: HIV-1 Env of pseudovirus 7030102001E5(Rev-) (HIV-1)
[19] = target: HIV-1 Env of pseudovirus R2184.c04 (HIV-1)
[20] = target: HIV-1 Env of pseudovirus Q461.e2 (HIV-1)
[21] = target: HIV-1 Env of pseudovirus WITO4160.33 (HIV-1)
[22] = target: HIV-1 Env of pseudovirus HIV-16845-2.22 (HIV-1)
[23] = target: HIV-1 Env of pseudovirus X2131_C1_B5 (HIV-1)
[24] = target: HIV-1 Env of pseudovirus CNE52 (HIV-1)
[25] = target: HIV-1 Env of pseudovirus HIV-001428-2.42 (HIV-1)
[26] = target: HIV-1 Env of pseudovirus X1254_c3 (HIV-1)
[27] = target: HIV-1 Env of pseudovirus ZM247v1(Rev-) (HIV-1)
[28] = target: HIV-1 Env of pseudovirus 6535.3 (HIV-1)
[29] = target: HIV-1 Env of pseudovirus 6240_08_TA5_4622 (HIV-1)
[30] = target: HIV-1 Env of pseudovirus 231965.c01 (HIV-1)
[31] = target: HIV-1 Env of pseudovirus WEAU_d15_410_787 (HIV-1)
[32] = target: HIV-1 Env of pseudovirus 6545.v4.c1 (HIV-1)
[33] = target: HIV-1 Env of pseudovirus T255-34 (HIV-1)
[34] = target: HIV-1 Env of pseudovirus CNE21 (HIV-1)
[35] = target: HIV-1 Env of pseudovirus Ce2060_G9 (HIV-1)
[36] = target: HIV-1 Env of pseudovirus P1981_C5_3 (HIV-1)
[37] = target: HIV-1 Env of pseudovirus Ce1176_A3 (HIV-1)

N49P6 (antibody)
IC50 [1]: 24.4 µg/mL
IC80 [1]: > 50 µg/mL
MPI [1]: 75
IC50 [2]: 6.68 µg/mL
IC80 [2]: > 50 µg/mL
MPI [2]: 77
IC50 [3]: 22.6 µg/mL
IC80 [3]: > 50 µg/mL
MPI [3]: 73
IC50 [4]: 0.657 µg/mL
IC80 [4]: 1.83 µg/mL
MPI [4]: 100
IC50 [5]: 0.11 µg/mL
IC80 [5]: 0.436 µg/mL
MPI [5]: 100
IC50 [6]: 32.3 µg/mL
IC80 [6]: > 50 µg/mL
MPI [6]: 67
IC50 [7]: 21.7 µg/mL
IC80 [7]: > 50 µg/mL
MPI [7]: 72
IC50 [8]: 0.117 µg/mL
IC80 [8]: 0.443 µg/mL
MPI [8]: 100
IC50 [9]: 14.4 µg/mL
IC80 [9]: 47.3 µg/mL
MPI [9]: 82
IC50 [10]: 0.229 µg/mL
IC80 [10]: 0.786 µg/mL
MPI [10]: 100
IC50 [11]: 0.245 µg/mL
IC80 [11]: 0.841 µg/mL
MPI [11]: 100
IC50 [12]: 0.066 µg/mL
IC80 [12]: 0.215 µg/mL
MPI [12]: 100
IC50 [13]: 0.34 µg/mL
IC80 [13]: 2.1 µg/mL
MPI [13]: 100
IC50 [14]: 0.061 µg/mL
IC80 [14]: 0.19 µg/mL
MPI [14]: 100
IC50 [15]: 33.6 µg/mL
IC80 [15]: > 50 µg/mL
MPI [15]: 61
IC50 [16]: 0.112 µg/mL
IC80 [16]: 0.376 µg/mL
MPI [16]: 100
IC50 [17]: 0.608 µg/mL
IC80 [17]: 3.25 µg/mL
MPI [17]: 100
IC50 [18]: 0.354 µg/mL
IC80 [18]: 1.17 µg/mL
MPI [18]: 100
IC50 [19]: 0.028 µg/mL
IC80 [19]: 0.077 µg/mL
MPI [19]: 100
IC50 [20]: 0.173 µg/mL
IC80 [20]: 0.622 µg/mL
MPI [20]: 100
IC50 [21]: 0.096 µg/mL
IC80 [21]: 0.277 µg/mL
MPI [21]: 100
IC50 [22]: 0.692 µg/mL
IC80 [22]: 3.75 µg/mL
MPI [22]: 100
IC50 [23]: 0.174 µg/mL
IC80 [23]: 0.72 µg/mL
MPI [23]: 100
IC50 [24]: 0.028 µg/mL
IC80 [24]: 0.095 µg/mL
MPI [24]: 100
IC50 [25]: 0.016 µg/mL
IC80 [25]: 0.05 µg/mL
MPI [25]: 100
IC50 [26]: 15.7 µg/mL
IC80 [26]: 34.2 µg/mL
MPI [26]: 91
IC50 [27]: 0.063 µg/mL
IC80 [27]: 0.17 µg/mL
MPI [27]: 100
IC50 [28]: 0.417 µg/mL
IC80 [28]: 1.34 µg/mL
MPI [28]: 100
IC50 [29]: 0.567 µg/mL
IC80 [29]: 1.76 µg/mL
MPI [29]: 100
IC50 [30]: 9.24 µg/mL
IC80 [30]: 39.4 µg/mL
MPI [30]: 87
IC50 [31]: 0.07 µg/mL
IC80 [31]: 0.188 µg/mL
MPI [31]: 100
IC50 [32]: 24.5 µg/mL
IC80 [32]: > 50 µg/mL
MPI [32]: 76
IC50 [33]: 0.076 µg/mL
IC80 [33]: 0.392 µg/mL
MPI [33]: 100
IC50 [34]: 0.832 µg/mL
IC80 [34]: 6.52 µg/mL
MPI [34]: 99
IC50 [35]: 0.888 µg/mL
IC80 [35]: 4.81 µg/mL
MPI [35]: 100
IC50 [36]: 0.31 µg/mL
IC80 [36]: 0.708 µg/mL
MPI [36]: 100
IC50 [37]: 0.594 µg/mL
IC80 [37]: 2.11 µg/mL
MPI [37]: 100
